The source of these data is patent publication US20160209425A1, “USE OF DECTIN-1 ACTIVATORS FOR TREATMENT OF LIVER DISORDERS” (NEW YORK UNIVERSITY, priority 2015, published 2016).

Entries after “also recorded” stand apart in the source; their conditions may differ.

The subject of one assay is HSC. Put plainly: LPS-stimulated hepatic stellate cells in vitro. In kind it is cell-based, mouse. The note with it: LPS-stimulated Dectin-1−/− HSC, 24 h; FIG. 14D. The protocol:
Murine hepatic NPC were collected as previously (Connolly et al., 2009, The Journal of clinical investigation 119, 3213-3225). Briefly, the portal vein was cannulated and infused with 1% Collagenase IV (Sigma). The liver was then removed, minced, and filtered to obtain single cell suspensions. Hepatocytes were excluded with serial low speed (400 RPM) centrifugation followed by high speed (2000 RPM) centrifugation to isolate the NPC, which were then further enriched over a 40% Optiprep (Sigma) gradient. […] In vitro proliferation was measured using the XTT cell proliferation kit (Roche). PKC activity was measured using a PKC Kinase Activity Assay Kit (Abcam). […]
For Western blotting, total protein was isolated from 75 mg liver tissue by homogenization in RIPA buffer with Complete Protease Inhibitor cocktail (Roche). […] The presence of the co-immunoprecipitated proteins were determined by western blotting.

In another assay the test system is LPS-induced endotoxemia. Put plainly: LPS-induced endotoxemia / sepsis in mice. It counts as in vivo, mouse. To be noted: WT mice co-administered LPS and M-CSF; FIGS. 7G, 7H. The protocol: C57BL/6 and CD45.1 mice were purchased from Jackson and bred in house. Dectin-1^−/− mice were a gift from Gordon Brown (University of Aberdeen). Mincle^−/− mice were obtained from the MMRRC. Age-matched 6-8 week old mice were used in all experiments. To induce hepatic fibrosis, female mice were treated with thrice weekly injections of TAA (250 mg/kg; Sigma) for 12 weeks as described (Connolly et al., 2009, The Journal of clinical investigation 119, 3213-3225). Alternatively, mice received bi-weekly injections of CCl4 (0.5 ml/kg; Sigma) for the same duration. To induce HCC, male mice were injected i.p. at 2 weeks of age with a single dose of DEN (15 mg/kg, Sigma) followed by bi-weekly injections of CCl4 (0.2 ml/kg) starting at 8 weeks of age ((Dapito et al., 2012, Cancer cell 21, 504-516). Mice were sacrificed 24 weeks later. To induce sepsis, male mice were injected i.p. with a single dose of LPS (15 mg/kg; Sigma). Rectal core body temperature was determined using a MicroTherma 2 temperature probe (Thermoworks). In selected experiments, MyD88 inhibitory peptide (1 mg/kg; Novus), an α-M-CSF neutralizing antibody (2 mg/kg; Clone 5A1, BioXCell), or an α-CD14 neutralizing antibody (4 mg/kg; Clone 4C1, BD Bioscience) was administered immediately preceding each TAA or LPS administration. At the time of sacrifice, blood and liver samples were harvested for analysis. […]

Another assay relates to macrophages. Put plainly: Macrophages treated in vitro (M-CSF, M-CSF blockade, TNF-a blockade), CD14 and cytokine expression. In kind it is cell-based, mouse. The protocol: Murine hepatic NPC were collected as previously (Connolly et al., 2009, The Journal of clinical investigation 119, 3213-3225). Briefly, the portal vein was cannulated and infused with 1% Collagenase IV (Sigma). The liver was then removed, minced, and filtered to obtain single cell suspensions. Hepatocytes were excluded with serial low speed (400 RPM) centrifugation followed by high speed (2000 RPM) centrifugation to isolate the NPC, which were then further enriched over a 40% Optiprep (Sigma) gradient. Human liver NPCs were isolated using a similar protocol as we have described ((Ibrahim et al., 2012, Gastroenterology 143, 1061-1072). Human PBMC were isolated by overlaying whole blood diluted 1:1 in PBS over an equal amount of Ficoll. The cells were then spun at 2100 RPM for 21 min at 20° C. and buffy coat harvested to obtain the PBMC as described ((Rehman et al., 2013, Journal of immunology 190, 4640-4649). Single-cell suspensions of murine splenocytes were isolated by manual disruption of whole spleen and RBC lysis. For HSC isolation, the liver was perfused with 1% Collagenase IV and HSCs were enriched over a 2-layer Nicodenz (Sigma) gradient. HSC were used for experiments on day 14 of culture. […] In vitro proliferation was measured using the XTT cell proliferation kit (Roche). PKC activity was measured using a PKC Kinase Activity Assay Kit (Abcam). […]

A further assay concerns liver regeneration. Put plainly: 70% partial hepatectomy, liver regeneration. In kind it is in vivo, mouse. To be noted: TCRδ−/− mice, 36 h, FIG. 29C. The text has this: C57BL/6, TCRδ^−/−, and C57BL/6-Trdc^tm1Mal mice were purchased from Jackson (Bar Harbor, Me.). For selected experiments, CD45.1 mice and C57BL/6 controls were purchased from Taconic (Germantown, N.Y.). Dectin-1^−/− mice were a gift from Gordon Brown (University of Aberdeen). Bone marrow chimeric animals were created by irradiating mice (9 Gy) followed by i.v. bone marrow transfer (10^7 cells) as described by us (Ochi et al., The Journal of clinical investigation 2012; 122:4118-29). The 70% partial hepatectomy procedure entailed ligation and removal of the left and median lobes of the liver in 8-12 week-old mice (Mitchell et al., Nat Protoc 2008; 3:1167-70). The sham operation consisted of a midline laparotomy alone. All animal procedures were approved by NYU School of Medicine IACUC.
In selected experiments, NK1.1^+ cells were depleted using an mAb (PK136, 150 μg, eBiosciences, San Diego, Calif.). […]
Liver tissues were fixed in formaldehyde, embedded in paraffin, and stained for B220 (RA3-6B2; BD), BrdU (Bu20a; Sigma), CCL20 (polyclonal, Abcam), CD45 (30-F11; BD), CD68 (KP1; Abcam), Ki67 (16A8; Biolegend), MPO (Rabbit polyclonal; LS Biosciences, Seattle, Wash.), PCNA (PC10; Biolegend). […] Data was quantified by examining 10 high-power fields (HPFs) per slide. […]

Turning to `CN(C)CCCn1cc(C2=C(c3c[nH]c4ccccc34)C(=O)NC2=O)c2ccccc21` [PKC inhibition, GF109203X], the “M-CSF expression in cell culture supernatant” value in the assay with HSC is recorded as “abrogated the higher M-CSF expression”.

B1: recombinant M-CSF: recombinant murine M-CSF (R&D) (protein, UniProt P07141 33-552, looked up)
Macrophage colony-stimulating …: KEVSEHCSHMIGNGHLKVLQQLIDSQMETSCQIAFEFVDQEQLDDPVCYLKKAFFLVQDIIDETMRFKDNTPNANATERLQELSNNLNSCFTKDYEEQNKACVRTFHETPLQLLEKIKNFFNETKNLLEKDWNIFTKNCNNSFAKCSSRDVVTKPDCNCLYPKATPSSDPASASPHQPPAPSMAPLAGLAWDDSQRTEGSSLLPSELPLRIEDPGSAKQRPPRSTCQTLESTEQPNHGDRLTEDSQPHPSAGGPVPGVEDILESSLGTNWVLEEASGEASEGFLTQEAKFSPSTPVGGSIQAETDRPRALSASPFPKSTEDQKPVDITDRPLTEVNPMRPIGQTQNNTPEKTDGTSTLREDHQEPGSPHIATPNPQRVSNSATPVAQLLLPKSHSWGIVLPLGELEGKRSTRDRRSPAELEGGSASEGAARPVARFNSIPLTDTGHVEQHEGSSDPQIPESVFHLLVPGIILVLLTVGGLLFYKWKWRSHRDPQTLDSSVGRPEDSSLTQDEDRQVELPV
As to B1, in the assay on LPS-induced endotoxemia, the “LPS-mediated sepsis (serum IL-6, core body temperature)” value was “exacerbated”. Also, in the assay on macrophages (macrophages in vitro, cell-culture supernatant, FIG. 7F), the “MCP-1 and TNF-a expression” value is “upregulated”. The CD14 expression result in the assay on macrophages (macrophages treated with recombinant M-CSF, FIG. 7E) is recorded as “increased”.

B2: recombinant mIL-22: recombinant IL-22 (R&D) (protein, UniProt Q9JJY9 34-179, looked up)
Interleukin-22: LPVNTRCKLEVSNFQQPYIVNRTFMLAKEASLADNNTDVRLIGEKLFRGVSAKDQCYLMKQVLNFTLEDVLLPQSDRFQPYMQEVVPFLTKLSNQLSSCHISGDDQNIQKNVRRLKETVKKLGESGEIKAIGELDLLFMSLRNACV
In the case of B2, the “rate of hepatic regeneration (BrdU incorporation)” value in the assay on liver regeneration is “rescued”; with liver regeneration (listed as recombinant IL-22), “impressively restored; also recorded: rescues”.
